Laboratory results published in patent publication US20200024322A1 (Eli Lilly, published 2020).
Numbering of substitutions follows the chain as printed. Numbered stars: 1 amine (or outer) side, 2 acyl side, 3 side chain; on linkers, the order of the positions; unused ones are H or OH. Square brackets hold non-standard residues; d marks the D form. Side chains are listed from the residue outwards. Ends that are not written are not given here. * marks the point of attachment. C20 diacid = O=C(O)CCCCCCCCCCCCCCCCCCC(=O)*; γGlu = O=C(O)[C@H](CCC(=O)[*:2])N[*:1]; AEEA = NCCOCCOCC(=O)O; Aib = CC(C)(N)C(=O)O

T1: human GIP receptor (human, UniProt P48546 22-466)
T1 construct: whole, on cells; also called hGIPR; hGIP-R
T1 sequence (looked up): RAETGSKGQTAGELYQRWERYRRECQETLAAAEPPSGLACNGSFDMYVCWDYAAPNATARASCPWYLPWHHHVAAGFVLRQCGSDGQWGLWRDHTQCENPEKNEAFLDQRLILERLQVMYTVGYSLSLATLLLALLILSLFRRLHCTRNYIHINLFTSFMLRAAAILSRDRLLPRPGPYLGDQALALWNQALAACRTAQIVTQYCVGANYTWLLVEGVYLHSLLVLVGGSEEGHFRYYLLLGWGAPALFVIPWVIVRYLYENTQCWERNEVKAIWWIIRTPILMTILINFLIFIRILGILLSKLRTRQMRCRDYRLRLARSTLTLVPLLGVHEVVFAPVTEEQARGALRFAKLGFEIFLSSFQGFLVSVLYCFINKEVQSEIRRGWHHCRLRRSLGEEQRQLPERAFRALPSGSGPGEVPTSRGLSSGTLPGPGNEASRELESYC

B1: Example 253 (peptide)
peptide: YXEGTFTSDYSILLDKKAQAAFIEYLIEGGPSSGAPPPS
modifications: Aib2; K17((2-[2-(2-Amino-ethoxy)-ethoxy]-acetyl)2-(γ-Glu)-CO-(CH2)18-CO2H); C-terminal NH2
B2: Example 229 (peptide)
peptide: YXEGTXTSDYSXLDEKAQXEFIXYLIEGGPSSGAPPPS
modifications: Aib2; αMeF(2F)6; αMeL12; K16((2-[2-(2-Amino-ethoxy)-ethoxy]-acetyl)2-(γ-Glu)-CO-(CH2)18-CO2H); Aib19; D-Glu23; C-terminal NH2 (positions counted on this 38-residue peptide)
B3: Example 330 (peptide)
peptide: Y[Aib]EGTFTSDYSILLDEK([AEEA-AEEA-γGlu-C20 diacid])AQ[Aib]AFIEYLIAGGPSSGAPPPS-NH2
modifications: N-terminus assumed
SMILES: CC[C@H](C)[C@H](NC(=O)[C@H](CC(C)C)NC(=O)[C@H](Cc1ccc(O)cc1)NC(=O)[C@H](CCC(=O)O)NC(=O)[C@@H](NC(=O)[C@H](Cc1ccccc1)NC(=O)[C@H](C)NC(=O)C(C)(C)NC(=O)[C@H](CCC(N)=O)NC(=O)[C@H](C)NC(=O)[C@H](CCCCNC(=O)COCCOCCNC(=O)COCCOCCNC(=O)CC[C@H](NC(=O)CCCCCCCCCCCCCCCCCCC(=O)O)C(=O)O)NC(=O)[C@H](CCC(=O)O)NC(=O)[C@H](CC(=O)O)NC(=O)[C@H](CC(C)C)NC(=O)[C@H](CC(C)C)NC(=O)[C@@H](NC(=O)[C@H](CO)NC(=O)[C@H](Cc1ccc(O)cc1)NC(=O)[C@H](CC(=O)O)NC(=O)[C@H](CO)NC(=O)[C@@H](NC(=O)[C@H](Cc1ccccc1)NC(=O)[C@@H](NC(=O)CNC(=O)[C@H](CCC(=O)O)NC(=O)C(C)(C)NC(=O)[C@@H](N)Cc1ccc(O)cc1)[C@@H](C)O)[C@@H](C)O)[C@@H](C)CC)[C@@H](C)CC)C(=O)N[C@@H](C)C(=O)NCC(=O)NCC(=O)N1CCC[C@H]1C(=O)N[C@@H](CO)C(=O)N[C@@H](CO)C(=O)NCC(=O)N[C@@H](C)C(=O)N1CCC[C@H]1C(=O)N1CCC[C@H]1C(=O)N1CCC[C@H]1C(=O)N[C@@H](CO)C(N)=O
B4: Example 232 (peptide)
peptide: YXEGTXTSDXSIXLDXKAQXEFIXYLIEGGPSSGAPPPS
modifications: Aib2; αMeF(2F)6; 4Pal10; αMeL13; Orn16; K17((2-[2-(2-Amino-ethoxy)-ethoxy]-acetyl)2-(γ-Glu)-CO-(CH2)16-CO2H); Aib20; D-Glu24; C-terminal NH2
B5: Example 248 (peptide)
peptide: B4 peptide with X10Y, X13L
modifications: Aib2; αMeF(2F)6; Orn16; K17((2-[2-(2-Amino-ethoxy)-ethoxy]-acetyl)2-(γ-Glu)-CO-(CH2)16-CO2H); Aib20; D-Glu24; C-terminal NH2
B6: Example 249 (peptide)
peptide: B4 peptide with X10Y
modifications: Aib2; αMeF(2F)6; Nle13; Orn16; K17((2-[2-(2-Amino-ethoxy)-ethoxy]-acetyl)2-(γ-Glu)-CO-(CH2)16-CO2H); Aib20; D-Glu24; C-terminal NH2
B7: Example 233 (peptide)
peptide: B4 peptide
modifications: Aib2; αMeF(2F)6; 4Pal10; αMeL13; Dab16; K17((2-[2-(2-Amino-ethoxy)-ethoxy]-acetyl)2-(γ-Glu)-CO-(CH2)16-CO2H); Aib20; D-Glu24; C-terminal NH2

Legend:
human GIP receptor = biological target: T1, human GIP receptor; assay: [125I]-GIP competition SPA, hGIPR membranes
Protocol: The binding buffer contains 25 mM HEPES, pH 7.4, 2.5 mM CaCl₂, 1 mM MgCl₂, 0.1% (w/v) bacitracin, 0.003% (w/v) TWEEN®-20, and Roche Complete™ Protease Inhibitors without EDTA. […] Plates are sealed and mixed on a plate shaker (setting 6) for 1 minute and read with a PerkinElmer Trilux MicroBeta® scintillation counter after 2.5 to 12 hours of incubation/settling time at room temperature.
(§1) Data are analyzed using four-parameter (curve maximum, curve minimum, IC₅₀, Hill slope) nonlinear regression routines (Genedata Screener, version 12.0.4, Genedata AG, Basal, Switzerland). […] Values for Kᵢ are reported as the geometric mean, with error expressed as the standard error of the mean (SEM) and n is equal to the number of independent replicates (determined in assays performed on different days). Geometric Means are calculated as follows: […]

human GLP-1 receptor = biological target: T2, human GLP-1 receptor (human, UniProt P43220 24-463); assay: [125I]-GLP-1 competition SPA, hGLP-1R membranes
T2 construct: whole, on cells; also called hGLP-1R; hGLP1R
Protocol: The binding buffer contains 25 mM HEPES, pH 7.4, 2.5 mM CaCl₂, 1 mM MgCl₂, 0.1% (w/v) bacitracin, 0.003% (w/v) TWEEN®-20, and Roche Complete™ Protease Inhibitors without EDTA.
as §1

Binder | Ki (human GIP receptor) [nM] | Ki (human GLP-1 receptor) [nM]
B1 | 0.138 | 2.57
B2 | 2.47 | 36.2
B3 | 0.114 | –
B4 | 0.0544 | 5.62
B5 | 0.0397 | 2.4
B6 | 0.0394 | 2.35
B7 | 0.0445 | 5.99
